Tests used:
[1] = target: GST-JP2NT (junctophilin-2 residues 1-565) (Mus musculus, UniProt Q9ET78 SEQ:1-565); test: EMSA; conditions: tags: GST
[2] = target: T1, Cav1.2 (voltage-gated L-type Ca2+ channel) (mouse, UniProt Q01815 1-2139); test: co-immunoprecipitation with anti-HA, Western blot
T1 construct: Endogenous prey of the co-immunoprecipitation

[3] = target: T2, type 2 ryanodine receptor (mouse, UniProt E9Q401 1-4966, limits assumed); test: co-immunoprecipitation with anti-HA, Western blot
T2 construct: Endogenous prey of the co-immunoprecipitation; also called RyR2

[4] = target: T3, JP2(1-565) truncation with N-terminal FLAG tag (plasmid construct of FIG. 4)
T3 chain: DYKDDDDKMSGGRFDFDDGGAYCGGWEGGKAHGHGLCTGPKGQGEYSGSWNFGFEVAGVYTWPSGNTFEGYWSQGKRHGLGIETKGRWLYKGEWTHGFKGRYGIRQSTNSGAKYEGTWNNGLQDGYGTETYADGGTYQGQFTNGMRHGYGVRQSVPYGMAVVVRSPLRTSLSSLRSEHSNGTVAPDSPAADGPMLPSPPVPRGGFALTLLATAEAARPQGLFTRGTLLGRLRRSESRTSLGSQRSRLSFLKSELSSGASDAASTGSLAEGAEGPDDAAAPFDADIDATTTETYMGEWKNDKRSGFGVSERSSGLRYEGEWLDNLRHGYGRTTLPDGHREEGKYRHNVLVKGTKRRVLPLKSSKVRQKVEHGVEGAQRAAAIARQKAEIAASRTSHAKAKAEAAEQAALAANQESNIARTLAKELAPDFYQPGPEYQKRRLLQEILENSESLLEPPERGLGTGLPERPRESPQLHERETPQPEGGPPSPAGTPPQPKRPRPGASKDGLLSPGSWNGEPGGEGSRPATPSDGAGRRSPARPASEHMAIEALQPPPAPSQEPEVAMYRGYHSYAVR

[5] = target: T4, junctophilin-2 (JP2), human, in human heart lysates, Q9BR39
T4 chain: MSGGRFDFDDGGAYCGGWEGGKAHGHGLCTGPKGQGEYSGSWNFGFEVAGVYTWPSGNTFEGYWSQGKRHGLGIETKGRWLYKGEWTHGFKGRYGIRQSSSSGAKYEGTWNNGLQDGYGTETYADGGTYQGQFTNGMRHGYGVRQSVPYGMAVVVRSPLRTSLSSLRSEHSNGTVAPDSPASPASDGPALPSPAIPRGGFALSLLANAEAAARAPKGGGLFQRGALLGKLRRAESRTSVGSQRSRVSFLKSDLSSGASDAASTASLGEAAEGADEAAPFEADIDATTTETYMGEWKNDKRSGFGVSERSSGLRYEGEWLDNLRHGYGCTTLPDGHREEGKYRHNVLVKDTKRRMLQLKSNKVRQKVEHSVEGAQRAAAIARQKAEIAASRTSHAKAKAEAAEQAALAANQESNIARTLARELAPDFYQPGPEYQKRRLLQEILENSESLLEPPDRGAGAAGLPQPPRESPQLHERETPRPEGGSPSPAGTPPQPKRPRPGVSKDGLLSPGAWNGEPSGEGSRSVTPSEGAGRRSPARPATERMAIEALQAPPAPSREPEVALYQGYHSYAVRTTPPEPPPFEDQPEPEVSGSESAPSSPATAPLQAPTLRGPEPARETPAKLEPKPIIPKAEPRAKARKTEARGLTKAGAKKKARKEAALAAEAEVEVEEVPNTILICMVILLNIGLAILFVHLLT

[6] = target: T5, full-length JP2 Δ(198-205) with N-terminal FLAG and C-terminal HA tags
T5 chain: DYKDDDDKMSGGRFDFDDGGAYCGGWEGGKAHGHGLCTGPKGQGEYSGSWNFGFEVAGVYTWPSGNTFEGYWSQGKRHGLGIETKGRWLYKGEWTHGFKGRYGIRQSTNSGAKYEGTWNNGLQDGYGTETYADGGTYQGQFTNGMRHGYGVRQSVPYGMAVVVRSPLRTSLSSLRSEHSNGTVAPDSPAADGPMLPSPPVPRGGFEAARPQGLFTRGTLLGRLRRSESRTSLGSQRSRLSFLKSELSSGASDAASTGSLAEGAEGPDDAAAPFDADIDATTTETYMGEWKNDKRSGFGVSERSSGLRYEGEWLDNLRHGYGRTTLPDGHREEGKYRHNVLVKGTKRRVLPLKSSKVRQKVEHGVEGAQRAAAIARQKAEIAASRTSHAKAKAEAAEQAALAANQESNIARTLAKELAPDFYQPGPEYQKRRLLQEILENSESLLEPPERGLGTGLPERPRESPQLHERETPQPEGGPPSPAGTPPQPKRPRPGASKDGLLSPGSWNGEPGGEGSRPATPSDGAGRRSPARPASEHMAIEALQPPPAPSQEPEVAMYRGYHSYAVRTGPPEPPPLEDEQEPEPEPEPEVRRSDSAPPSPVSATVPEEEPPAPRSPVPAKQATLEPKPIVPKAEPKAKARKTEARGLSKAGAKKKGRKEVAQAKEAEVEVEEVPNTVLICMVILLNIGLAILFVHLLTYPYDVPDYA

[7] = target: T6, junctophilin-2 (JP2), murine, full length, untagged
T6 chain: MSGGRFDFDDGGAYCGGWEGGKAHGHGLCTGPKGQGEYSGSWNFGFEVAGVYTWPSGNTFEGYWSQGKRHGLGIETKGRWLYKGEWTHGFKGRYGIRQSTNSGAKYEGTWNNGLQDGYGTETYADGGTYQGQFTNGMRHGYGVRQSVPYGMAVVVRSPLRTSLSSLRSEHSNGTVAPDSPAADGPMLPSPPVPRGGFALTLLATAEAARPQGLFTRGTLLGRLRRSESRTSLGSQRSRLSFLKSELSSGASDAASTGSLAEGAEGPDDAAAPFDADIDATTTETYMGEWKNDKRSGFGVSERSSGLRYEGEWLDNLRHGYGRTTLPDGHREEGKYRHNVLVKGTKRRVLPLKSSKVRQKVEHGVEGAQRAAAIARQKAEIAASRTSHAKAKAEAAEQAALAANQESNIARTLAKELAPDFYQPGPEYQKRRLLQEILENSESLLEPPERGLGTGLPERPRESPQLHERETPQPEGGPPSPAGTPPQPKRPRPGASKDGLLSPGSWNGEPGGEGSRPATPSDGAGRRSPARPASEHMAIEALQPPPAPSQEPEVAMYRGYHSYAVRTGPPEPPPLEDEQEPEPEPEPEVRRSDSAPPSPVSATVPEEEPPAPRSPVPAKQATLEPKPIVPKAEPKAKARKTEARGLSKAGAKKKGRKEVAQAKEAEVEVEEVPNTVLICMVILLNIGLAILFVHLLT

[8] = target: T7, full-length JP2 Δ(563-568) with N-terminal FLAG and C-terminal HA tags
T7 chain: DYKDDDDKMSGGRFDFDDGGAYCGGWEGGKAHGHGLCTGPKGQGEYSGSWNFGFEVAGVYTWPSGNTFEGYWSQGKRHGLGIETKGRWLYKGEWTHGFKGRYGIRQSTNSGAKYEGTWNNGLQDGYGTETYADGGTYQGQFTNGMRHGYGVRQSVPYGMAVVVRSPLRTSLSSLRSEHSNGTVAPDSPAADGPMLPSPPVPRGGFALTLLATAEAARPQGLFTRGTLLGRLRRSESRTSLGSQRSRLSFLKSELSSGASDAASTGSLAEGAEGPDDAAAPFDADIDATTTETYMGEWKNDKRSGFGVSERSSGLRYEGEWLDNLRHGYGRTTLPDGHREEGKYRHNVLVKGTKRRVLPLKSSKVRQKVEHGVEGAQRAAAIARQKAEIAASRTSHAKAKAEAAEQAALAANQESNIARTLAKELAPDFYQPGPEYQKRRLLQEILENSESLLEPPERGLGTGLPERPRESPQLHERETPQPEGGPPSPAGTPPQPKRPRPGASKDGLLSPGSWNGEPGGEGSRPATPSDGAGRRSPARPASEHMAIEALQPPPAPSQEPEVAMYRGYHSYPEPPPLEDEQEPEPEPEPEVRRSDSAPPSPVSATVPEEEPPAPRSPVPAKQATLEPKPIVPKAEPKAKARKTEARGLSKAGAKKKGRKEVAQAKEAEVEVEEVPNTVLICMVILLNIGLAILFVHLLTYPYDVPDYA

[9] = target: T8, full-length JP2 Δ(153-158) with N-terminal FLAG and C-terminal HA tags
T8 chain: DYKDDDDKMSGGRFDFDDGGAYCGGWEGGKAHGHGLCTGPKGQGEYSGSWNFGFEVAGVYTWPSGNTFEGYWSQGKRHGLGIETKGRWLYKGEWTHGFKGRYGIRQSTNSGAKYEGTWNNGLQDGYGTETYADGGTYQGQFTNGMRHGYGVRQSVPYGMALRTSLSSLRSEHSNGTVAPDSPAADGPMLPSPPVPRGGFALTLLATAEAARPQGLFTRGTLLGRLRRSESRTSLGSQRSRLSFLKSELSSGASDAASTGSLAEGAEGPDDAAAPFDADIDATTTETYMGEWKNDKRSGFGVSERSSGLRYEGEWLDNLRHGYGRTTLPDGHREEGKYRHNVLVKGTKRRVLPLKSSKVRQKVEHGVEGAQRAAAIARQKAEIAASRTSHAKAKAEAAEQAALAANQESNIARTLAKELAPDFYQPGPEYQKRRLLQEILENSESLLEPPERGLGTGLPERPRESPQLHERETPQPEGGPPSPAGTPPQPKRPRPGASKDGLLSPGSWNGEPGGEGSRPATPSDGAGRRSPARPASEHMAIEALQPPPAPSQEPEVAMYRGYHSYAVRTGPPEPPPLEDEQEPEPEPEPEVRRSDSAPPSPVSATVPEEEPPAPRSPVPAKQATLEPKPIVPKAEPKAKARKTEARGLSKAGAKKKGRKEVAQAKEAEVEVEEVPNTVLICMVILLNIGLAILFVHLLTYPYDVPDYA

T1 sequence (Q01815 whole entry): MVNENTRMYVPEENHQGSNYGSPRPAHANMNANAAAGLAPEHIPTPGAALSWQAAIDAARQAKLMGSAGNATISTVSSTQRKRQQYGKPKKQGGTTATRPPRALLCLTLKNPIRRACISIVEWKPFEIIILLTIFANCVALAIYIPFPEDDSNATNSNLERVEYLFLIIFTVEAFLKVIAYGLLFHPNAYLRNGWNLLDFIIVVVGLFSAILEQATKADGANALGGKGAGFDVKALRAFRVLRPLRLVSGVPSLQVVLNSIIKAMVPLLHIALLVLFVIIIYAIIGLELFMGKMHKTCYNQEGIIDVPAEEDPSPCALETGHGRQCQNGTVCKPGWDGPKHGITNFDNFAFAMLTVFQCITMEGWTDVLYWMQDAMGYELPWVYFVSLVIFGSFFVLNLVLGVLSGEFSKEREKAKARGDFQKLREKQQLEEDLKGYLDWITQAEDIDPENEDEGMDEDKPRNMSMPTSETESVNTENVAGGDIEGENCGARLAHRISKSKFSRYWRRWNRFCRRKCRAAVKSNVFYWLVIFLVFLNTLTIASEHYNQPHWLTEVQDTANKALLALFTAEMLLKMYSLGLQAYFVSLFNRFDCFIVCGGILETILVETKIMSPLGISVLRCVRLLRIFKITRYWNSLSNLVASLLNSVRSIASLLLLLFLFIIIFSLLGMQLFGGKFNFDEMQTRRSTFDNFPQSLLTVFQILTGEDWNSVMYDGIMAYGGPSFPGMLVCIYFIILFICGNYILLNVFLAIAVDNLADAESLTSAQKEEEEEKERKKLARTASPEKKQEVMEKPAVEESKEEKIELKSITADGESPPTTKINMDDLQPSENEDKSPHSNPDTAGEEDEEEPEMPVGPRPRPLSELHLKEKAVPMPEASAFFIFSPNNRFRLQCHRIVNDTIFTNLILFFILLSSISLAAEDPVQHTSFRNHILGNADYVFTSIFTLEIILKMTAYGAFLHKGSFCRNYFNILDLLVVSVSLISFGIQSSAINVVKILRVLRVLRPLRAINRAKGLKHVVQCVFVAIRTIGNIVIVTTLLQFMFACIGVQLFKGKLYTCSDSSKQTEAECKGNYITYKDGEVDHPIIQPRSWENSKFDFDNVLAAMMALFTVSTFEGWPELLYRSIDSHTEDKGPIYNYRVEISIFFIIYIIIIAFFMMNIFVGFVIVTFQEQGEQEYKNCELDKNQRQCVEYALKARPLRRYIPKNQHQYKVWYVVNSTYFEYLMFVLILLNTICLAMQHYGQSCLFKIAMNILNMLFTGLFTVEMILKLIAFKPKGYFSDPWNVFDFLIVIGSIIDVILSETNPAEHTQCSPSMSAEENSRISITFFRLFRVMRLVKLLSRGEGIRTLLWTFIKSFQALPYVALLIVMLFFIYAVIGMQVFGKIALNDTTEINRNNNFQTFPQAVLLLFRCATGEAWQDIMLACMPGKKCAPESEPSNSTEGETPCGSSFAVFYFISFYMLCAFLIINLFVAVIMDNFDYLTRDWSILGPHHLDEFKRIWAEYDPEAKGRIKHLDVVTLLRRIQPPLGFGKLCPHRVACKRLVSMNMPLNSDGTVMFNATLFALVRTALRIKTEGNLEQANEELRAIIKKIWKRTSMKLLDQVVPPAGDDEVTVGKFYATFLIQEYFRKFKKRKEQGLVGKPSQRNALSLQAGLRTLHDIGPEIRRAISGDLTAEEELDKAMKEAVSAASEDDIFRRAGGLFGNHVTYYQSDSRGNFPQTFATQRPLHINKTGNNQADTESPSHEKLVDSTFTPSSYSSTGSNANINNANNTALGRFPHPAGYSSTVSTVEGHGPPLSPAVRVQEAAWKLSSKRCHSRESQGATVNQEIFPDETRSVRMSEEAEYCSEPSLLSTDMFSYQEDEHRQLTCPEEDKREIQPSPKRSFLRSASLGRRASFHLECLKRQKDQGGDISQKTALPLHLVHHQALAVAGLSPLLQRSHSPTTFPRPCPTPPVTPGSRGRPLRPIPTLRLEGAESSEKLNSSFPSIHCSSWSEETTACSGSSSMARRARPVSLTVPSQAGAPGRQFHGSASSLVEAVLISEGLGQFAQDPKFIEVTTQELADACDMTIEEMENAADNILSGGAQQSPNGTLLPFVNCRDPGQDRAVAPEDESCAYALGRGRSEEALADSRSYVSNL

B1: TATA box variant TATAAT (dsDNA)
DNA 1: GGGATCTGAGTCGCAGTATAATAGAAGCTTTTCGGGCGTT
DNA 2: AACGCCCGAAAAGCTTCTATTATACTGCGACTCAGATCCC
modifications: [22]
binding result [1]: binds

B2: JP2(566-end)-HA (other)
chain: TGPPEPPPLEDEQEPEPEPEPEVRRSDSAPPSPVSATVPEEEPPAPRSPVPAKQATLEPKPIVPKAEPKAKARKTEARGLSKAGAKKKGRKEVAQAKEAEVEVEEVPNTVLICMVILLNIGLAILFVHLLTYPYDVPDYA
notes: also called JP(566-end); Ad-JP2(566-end)
binding result [2]: no binding | binding result [3]: no binding

B3: purified human calpain I (protein)
chain: SEEIITPVYCTGVSAQVQKQRARELGLGRHENAIKYLGQDYEQLRVRCLQSGTLFRDEAFPPVPQSLGYKDLGPNSSKTYGIKWKRPTELLSNPQFIVDGATRTDICQGALGDCWLLAAIASLTLNDTLLHRVVPHGQSFQNGYAGIFHFQLWQFGEWVDVVVDDLLPIKDGKLVFVHSAEGNEFWSALLEKAYAKVNGSYEALSGGSTSEGFEDFTGGVTEWYELRKAPSDLYQIILKALERGSLLGCSIDISSVLDMEAITFKKLVKGHAYSVTGAKQVNYRGQVVSLIRMRNPWGEVEWTGAWSDSSSEWNNVDPYERDQLRVKMEDGEFWMSFRDFMREFTRLEICNLTPDALKSRTIRKWNTTLYEGTWRRGSTAGGCRNYPATFWVNPQFKIRLDETDDPDDYGDRESGCSFVLALMQKHRRRERRFGRDMETIGFAVYEVPPELVGQPAVHLKRDFFLANASRARSEQFINLREVSTRFRLPPGEYVVVPSTFEPNKEGDFVLRFFSEKSAGTVELDDQIQANLPDEQVLSEEEIDENFKALFRQLAGEDMEISVKELRTILNRIISKHKDLRTKGFSLESCRSMVNLMDRDGNGKLGLVEFNILWNRIRNYLSIFRKFDLDKSGSMSAYEMRMAIESAGFKLNKKLYELIITRYSEPDLAVDFDNFVCCLVRLETMFRFFKTLDTDLDGVVTFDLFKWLQLTMFA
in vitro calpain cleavage, Western blot with anti-FLAG [4]: this fragment can be further processed by calpain to generate N-I, N-II, and N-III fragments | in vitro calpain cleavage of human heart lysates, Western blot of JP2 [5]: time-dependent and Ca^2+/calpain-dependent JP2 down-regulation | in vitro calpain cleavage assay, Western blot [6]: resulted in complete loss of the JP2 cleavage product N-II but had no effect on the generation of N-I | in vitro calpain cleavage of WT mouse heart lysates, Western blot of full-length JP2 [7]: significant reduction in full-length JP2 upon addition of calpain I | in vitro calpain cleavage assay, Western blot [8]: led to complete loss of N-IV (FIG. 4D, d) and a severe reduction in C-I | in vitro calpain cleavage assay, Western blot [9]: completely abolished the generation of N-I in the in vitro calpain cleavage assay

Source: patent US20190307899A1, “JUNCTOPHILIN-2 FRAGMENTS AND USES THEREFOR” (University of Lowa Research Foundation, published 2019)
